Earlier results as cited in article PMC2225448.

How the values were obtained:
[1] = target: EGFR pY1069 pY1069 (Homo sapiens) (UniProt P00533)
[2] = target: EGFR pY1069 (Homo sapiens) (UniProt P00533)
[3] = target: ErbB2 (Homo sapiens) (UniProt P04626)

Sequence of Grb7 (Q14451 whole entry): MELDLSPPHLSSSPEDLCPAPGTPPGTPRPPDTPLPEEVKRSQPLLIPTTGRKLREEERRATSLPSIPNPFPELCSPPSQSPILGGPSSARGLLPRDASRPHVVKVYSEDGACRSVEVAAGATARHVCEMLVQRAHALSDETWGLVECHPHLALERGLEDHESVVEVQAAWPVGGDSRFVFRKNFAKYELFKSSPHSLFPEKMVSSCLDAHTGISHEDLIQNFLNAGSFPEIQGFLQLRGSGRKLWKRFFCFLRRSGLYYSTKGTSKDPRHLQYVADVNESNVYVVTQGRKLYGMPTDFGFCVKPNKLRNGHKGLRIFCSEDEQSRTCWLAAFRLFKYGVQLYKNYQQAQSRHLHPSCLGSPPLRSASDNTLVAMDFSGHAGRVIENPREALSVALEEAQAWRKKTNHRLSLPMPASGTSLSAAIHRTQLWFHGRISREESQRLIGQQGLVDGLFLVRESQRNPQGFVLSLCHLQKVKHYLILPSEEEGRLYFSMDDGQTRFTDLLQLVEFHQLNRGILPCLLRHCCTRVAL

Row | Kd [1] [nM] | Kd [2] [nM] | Kd [3] [nM] | Substance
1 | 400 | 400 |  | Cbl (from UniProt P22681)
2 |  |  | 2300 | Grb7 (from UniProt Q14451)
